The record followed here is EP4676952A2 (dated 2026).

Experiment [1] deals with T1, human complement component 2 (C2), purified protein (human, UniProt P06681 21-752).
T1 sequence (looked up): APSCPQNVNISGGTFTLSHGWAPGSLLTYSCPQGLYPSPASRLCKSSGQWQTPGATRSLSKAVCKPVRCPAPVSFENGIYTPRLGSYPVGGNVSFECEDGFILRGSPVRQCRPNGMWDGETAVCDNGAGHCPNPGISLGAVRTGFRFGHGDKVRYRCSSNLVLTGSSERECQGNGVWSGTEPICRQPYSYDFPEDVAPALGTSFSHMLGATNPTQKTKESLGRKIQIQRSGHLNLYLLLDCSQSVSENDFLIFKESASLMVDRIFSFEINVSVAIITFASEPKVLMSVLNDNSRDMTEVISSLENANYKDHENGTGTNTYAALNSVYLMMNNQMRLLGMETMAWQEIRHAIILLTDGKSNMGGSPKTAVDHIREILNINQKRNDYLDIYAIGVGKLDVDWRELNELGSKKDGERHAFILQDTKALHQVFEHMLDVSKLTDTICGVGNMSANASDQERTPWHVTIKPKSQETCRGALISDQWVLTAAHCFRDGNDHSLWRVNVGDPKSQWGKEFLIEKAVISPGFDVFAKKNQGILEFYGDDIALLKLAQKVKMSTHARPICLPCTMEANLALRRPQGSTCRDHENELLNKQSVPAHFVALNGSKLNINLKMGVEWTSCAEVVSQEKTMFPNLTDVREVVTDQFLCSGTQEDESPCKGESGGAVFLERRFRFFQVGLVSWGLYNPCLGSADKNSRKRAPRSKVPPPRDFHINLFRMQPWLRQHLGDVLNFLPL
The experiment can be described thus: cell-based or functional assay.

Another experiment addresses T2, C2b fragment of human C2 (human, UniProt P06681 21-243).
T2 construct: domain: C2b; also called smaller fragment C2b
T2 sequence (looked up): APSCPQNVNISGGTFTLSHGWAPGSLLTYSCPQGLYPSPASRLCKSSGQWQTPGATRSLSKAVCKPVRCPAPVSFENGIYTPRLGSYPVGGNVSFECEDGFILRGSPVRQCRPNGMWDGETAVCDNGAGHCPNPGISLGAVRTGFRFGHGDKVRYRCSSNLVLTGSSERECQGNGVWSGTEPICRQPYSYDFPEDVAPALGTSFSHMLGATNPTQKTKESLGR
The experiment can be described thus: pull-down of C1s-cleaved C2 with His-tagged nanobody on cobalt resin, western blot with goat anti-C2 polyclonal antibody. In general terms: In western blotting, separated proteins are transferred to a membrane and probed.

Experiment [2] has as its target T1, human complement component 2 (C2), …. Kind of experiment: SPR, Biacore T200, nanobody immobilised on a CM5 chip, human C2 2.97 to 248 nM as analyte, 1:1 Langmuir model. (In general: SPR reads the build-up and loss of mass on a sensor chip optically.)
Experiment [3] concerns the target T3, human C2b (small fragment of C2) (human, UniProt P06681).
T3 chain: T1 sequence (looked up)
The experiment can be described thus: ELISA.

B1: Clone 1B10 C2 nanobody (Nab1B10), monovalent, His-tagged (VHH)
VHH: QVQLQESGGGLVQAGGSLRLSCAASGHTFRSYYMGWFRQAPGKEREFVASISWTGGSTEYADSVKGRFTISRDNAKNTVYLQMNSLKPEDTAAYYCAADYSGDFLLSDLDSWGQGTQVTVSS
notes: Alpaca VHH expressed in E. coli BL21 from the pMES4 vector; single 15 kDa band on SDS-PAGE; also called NablBlO; Nabl BIO; not shown: His tag (monovalent form is 'His-tagged', purified on cobalt resin)
B1: in experiment [1], the “MicroVue CH50 Eq EIA (C5b-9 generation, classical pathway, normal human serum), EC50” value came out at 53 nM and the “classical complement pathway-mediated hemolytic assay (EShA, normal human serum), IC50” value is roughly 3 nM. For the same molecule, the binding result with C2b fragment of human C2 is recorded as “no binding”. Also, in experiment [2], binding was characterised by a dissociation constant (Kd) of 3.03 nM, the koff is 0.000395 s⁻¹ and the kon was determined as 131000 M⁻¹ s⁻¹. For the same molecule, the binding result in experiment [3] is reported as “no binding”.

What is called Kd is the constant that tells how readily two partners part at equilibrium. Read a high Kd as weaker binding. As a reminder, the koff is the rate constant with which the complex falls apart. A low value points to a long-lived complex. For orientation: kon means the second-order rate constant of association. The low end stands for slower complex formation, the high end for faster complex formation.
